From patent publication US20250049935, “BOTTLEBRUSH CONJUGATES FOR USE AS OLIGONUCLEOTIDE ENHANCERS” (Northeastern University, published 2025)

Target: alpha thrombin (Homo sapiens, UniProt P00734;P00734 P00734:328-363,P00734:364-622)
Experiment: MST; 20 mM HEPES pH 7.4, 150 mM NaCl, 2 mM CaCl2, 0.05% Tween; 10 nM thrombin

GGTTGGTGTGGTTGG (structured_DNA) [HD1]
Kd: 5.4 nM
